{
  "source": "paper PMC10786891",
  "about": "“Massively parallel profiling of RNA-targeting CRISPR-Cas13d”",
  "binders": {"B1": {"name": "crRNA-2 (MT) target (mixed)", "RNA 1": "CACCCGUGCAAAAUUGCAGGGGUCUAAAACCUUGAAGUUUUCCAAGUGCACU", "RNA 2": "UCCACAGCAAGUGCACUUGGAAAACUUCAAGAUGUGGUCA"}, "B2": {"name": "target 1 C2G (60-mer) (mixed)", "RNA 1": "CACCCGUGCAAAAAUGCAGGGGUCUAAAACUGAGCGGAUAACCUCUCUAUGG", "RNA 2": "CCACAUCUACGAAUUCGUACCAUAGAGAGGUUAUCCGCUGACCGAGAUCGGAAGAGCACA"}, "B3": {"name": "target 1 G5U (60-mer) (mixed)", "RNA 1": "B2 RNA 1", "RNA 2": "B2 RNA 2 with G37U, G40C"}, "B4": {"name": "target 1 3'-UGG (60-mer) (mixed)", "RNA 1": "B2 RNA 1", "RNA 2": "B2 RNA 2 with G40C, C42U, C43G"}, "B5": {"name": "target 1 3'-GCU (60-mer) (mixed)", "RNA 1": "B2 RNA 1", "RNA 2": "B2 RNA 2 with G40C, C42G, G44U"}, "B6": {"name": "target 1 C7A (60-mer) (mixed)", "RNA 1": "B2 RNA 1", "RNA 2": "B2 RNA 2 with C35A, G40C"}, "B7": {"name": "target 1 A20C (60-mer) (mixed)", "RNA 1": "B2 RNA 1", "RNA 2": "B2 RNA 2 with A22C, G40C"}, "B8": {"name": "target 1 C22A (60-mer) (mixed)", "RNA 1": "B2 RNA 1", "RNA 2": "B2 RNA 2 with C20A, G40C"}, "B9": {"name": "target 1 5'-UAA (60-mer) (mixed)", "RNA 1": "B2 RNA 1", "RNA 2": "B2 RNA 2 with G17U, U18A, G40C"}, "B10": {"name": "target 1 C4A (60-mer) (mixed)", "RNA 1": "B2 RNA 1", "RNA 2": "B2 RNA 2 with C38A, G40C"}, "B11": {"name": "target 1 3'-UAA (60-mer) (mixed)", "RNA 1": "B2 RNA 1", "RNA 2": "B2 RNA 2 with G40C, C42U, C43A, G44A"}, "B12": {"name": "target 1 U10G (60-mer) (mixed)", "RNA 1": "B2 RNA 1", "RNA 2": "B2 RNA 2 with U32G, G40C"}, "B13": {"name": "target 1 G15A (60-mer) (mixed)", "RNA 1": "B2 RNA 1", "RNA 2": "B2 RNA 2 with G27A, G40C"}, "B14": {"name": "target 1 3'-GGU (60-mer) (mixed)", "RNA 1": "B2 RNA 1", "RNA 2": "B2 RNA 2 with G40C, C42G, C43G, G44U"}, "B15": {"name": "target 1 A18G (60-mer) (mixed)", "RNA 1": "B2 RNA 1", "RNA 2": "B2 RNA 2 with A24G, G40C"}},
  "note": "Where a chain is given by its changes, count along the chain named. Names and notes keep the numbering of the source.",
  "data": [
    {"biological_target": "T1, EsCas13d, nuclease-dead (Eubacterium siraeum, UniProt B0MS50, R295A;H300A;R849A;H854A)", "T1 sequence": "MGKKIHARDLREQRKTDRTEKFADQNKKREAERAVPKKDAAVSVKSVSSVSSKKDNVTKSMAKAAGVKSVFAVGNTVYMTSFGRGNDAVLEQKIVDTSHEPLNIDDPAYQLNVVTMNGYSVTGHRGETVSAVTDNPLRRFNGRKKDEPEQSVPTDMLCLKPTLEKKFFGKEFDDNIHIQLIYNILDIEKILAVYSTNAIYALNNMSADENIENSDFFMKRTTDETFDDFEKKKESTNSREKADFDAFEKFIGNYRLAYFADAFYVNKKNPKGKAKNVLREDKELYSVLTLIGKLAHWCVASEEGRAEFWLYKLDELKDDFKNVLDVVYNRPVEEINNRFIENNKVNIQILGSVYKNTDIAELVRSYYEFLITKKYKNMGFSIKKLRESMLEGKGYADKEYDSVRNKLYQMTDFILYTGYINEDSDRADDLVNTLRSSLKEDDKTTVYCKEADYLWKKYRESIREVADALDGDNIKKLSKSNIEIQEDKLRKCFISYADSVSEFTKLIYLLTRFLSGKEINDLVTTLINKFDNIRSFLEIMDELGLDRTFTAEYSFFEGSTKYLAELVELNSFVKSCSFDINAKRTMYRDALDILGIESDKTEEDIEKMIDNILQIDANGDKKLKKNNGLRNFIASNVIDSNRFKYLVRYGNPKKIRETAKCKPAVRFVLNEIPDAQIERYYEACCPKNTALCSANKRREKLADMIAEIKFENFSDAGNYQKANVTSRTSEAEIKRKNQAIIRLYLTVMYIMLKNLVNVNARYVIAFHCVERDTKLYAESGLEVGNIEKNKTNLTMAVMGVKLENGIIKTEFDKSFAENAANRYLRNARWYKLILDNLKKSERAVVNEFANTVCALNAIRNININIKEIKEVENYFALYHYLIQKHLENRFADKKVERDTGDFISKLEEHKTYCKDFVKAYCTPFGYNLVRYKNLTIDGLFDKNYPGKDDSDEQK", "assay": "BLI; crRNA (strand 1, pre-loaded); Mg2+; 40 mM Tris-HCl pH 7.5, 150 mM NaCl, 6 mM MgCl2, 1 mM DTT, 0.1% Tween-20, 0.2 mg/ml BSA; temperature not stated", "conditions": "tags: His6-TwinStrep-SUMO cleaved; label: 3' biotin on strand 2", "units": {"Kd": "nM"}, "values": [
      {"binder": "B1", "Kd": 3},
      {"binder": "B2", "Kd": 2},
      {"binder": "B3", "Kd": 9.3},
      {"binder": "B4", "Kd": 8.6},
      {"binder": "B5", "Kd": 4.2},
      {"binder": "B6", "Kd": 2.1},
      {"binder": "B7", "Kd": 6.3},
      {"binder": "B8", "Kd": 3.6},
      {"binder": "B9", "Kd": 6},
      {"binder": "B10", "Kd": 1.6},
      {"binder": "B11", "Kd": 6},
      {"binder": "B12", "Kd": 3.8},
      {"binder": "B13", "Kd": 3.4},
      {"binder": "B14", "Kd": 7.1},
      {"binder": "B15", "Kd": 8.7}
    ]},
    {"biological_target": "T1, EsCas13d, nuclease-dead", "assay": "BLI; crRNA (strand 1, pre-loaded); Mg2+; 40 mM Tris-HCl pH 7.5, 150 mM NaCl, 6 mM MgCl2, 1 mM DTT, 0.1% Tween-20, 0.2 mg/ml BSA; temperature not stated", "conditions": "tags: His6-TwinStrep-SUMO cleaved; label: 3' biotin on strand 2", "remark": "another data set of the same source", "units": {"koff": "s⁻¹", "kon": "M⁻¹ s⁻¹"}, "values": [
      {"binder": "B2", "koff": 0.0004, "kon": 200000},
      {"binder": "B3", "koff": 0.00042, "kon": 45000},
      {"binder": "B4", "koff": 0.0006, "kon": 70000},
      {"binder": "B6", "koff": 0.00045, "kon": 220000},
      {"binder": "B7", "koff": 0.00063, "kon": 100000},
      {"binder": "B8", "koff": 0.00066, "kon": 190000},
      {"binder": "B9", "koff": 0.00061, "kon": 100000},
      {"binder": "B10", "koff": 0.00035, "kon": 220000},
      {"binder": "B11", "koff": 0.00061, "kon": 100000},
      {"binder": "B12", "koff": 0.00051, "kon": 130000},
      {"binder": "B13", "koff": 0.0006, "kon": 180000},
      {"binder": "B14", "koff": 0.00084, "kon": 120000},
      {"binder": "B15", "koff": 0.00063, "kon": 73000}
    ]}
  ]
}
